In a protein production outcome set (Wang et al. 2014):

Test: label from the status in PepcDB records

Row | Sequence | protein production
1 | MIKGNNGNRGSSSSGYSADLLVCFPSRTHLALTPKPICSPSRPSDSSTNRRPHHRRQLSKLSGGGGGGHGSPVLWAKQASSKNMGGDEIAEPTSPKVTCAGQIKVRPSKCGGRGKNWQSVMEEIERIHDNRSQSKFFGLKKDVMGFLTCLRNIKFDFRCFGDFRHADVTSDDDEEEDDDDDEEEEVVEGEEEENSKTVFSKWFMVLQEEQNNKDDDKNNNKCDEKRDLEDTETEPAVPPPNALLLMRCRSAPAKSWLEERMKVKTEQEKREEQKEEKETEDQETSMKTKKKDLRSLMEEEKMELVLMRYDTEFYRLSSDIAKETWVVGGIQDPLSRSRSWKN | failed
2 | VMQMDRQPLVDPFGDYFQEFLSNAQNGQFFTPFGVCELMNQLITAPKVSDQPKQGDRRVLDPACGSGRLLLSAAQKDRALTFVGIDISYTCCLMTIINLCLNSLNGEVLHMNALTDQYWHRWL | failed
3 | MDSKQQRIGVIGTGAIGGFYGLMLAHAGHDVHFLLRSEFEAVNRAGLSLNSAVHGFRRLAPVQAYHSAQDMPPCDWLLVGAKTTGNDELAPLIRAAAAPGAKVLLLQNGLGVEERLRPLLPESLHLLGGLCFICVHRGEPGVIEHQAYGGVNLGYHSGPADERRRREIVEEGAALFRESGLESTAMPDLEQARWQKLVWNIPYNGLSVLLKSSTAPLMANADSRSLIEAIMEEVIGAAGACGFILPEGYADQLLAATERMPDYRPSMYHDFAHGRPLELAAIYAAPLARAAAAGYR | failed
4 | PGKEAQPAENVEFIYENGTWKLSQSWACTLIKNTVAPEQIPAMCADPAAPAPEGQPAPEQAPAPEAPAPEQAPAPEAPAPQ | failed
5 | MDNLTHYLATTLRTLRHQRGWSLSRLAEISGVSKAMLGQIERNESSPTVATLWKIATGLNVPFSVFISPPQAEFPPTFDPQQQAMVITPLFPWDPELCFDYFSLLLAPGTVSESTPHKAGVIEHVVVIQGRLDMCTGGVWQTIDAGKGLRFAGDTAHTYRNSSDQTVHFHSLIHYPRD | failed
6 | MWAFLVEQPNLPYTIAFACVLVLGVFEALALLIGLSMMSALDQWVPADVEYDADIGGSGLTGIAGWLCLNRLPLLIWFVLALTSFAIAGYLVNYISLMVSATLLPQLFTLPIAVVGSALSCRYLGRMLADLLPKNESTAISLDDLSGYVGTITLGCAIKGMPSEAVVRDKHQQKHYVLVEPETSGIEFASGTQVVLLKREGRVWSATRFDN | failed
7 | MVERVASSEVANRLNEWYDTIKRQDIKKAAILKHDLQKAMDDMEEDQNVLLYYNLIDSRYKLLLEQYDESGTILESLKDQTERADTDNLLQYYYYFFSGLYEFNMNNFTHAIRLYHKAENHLTTIPDEIEHAEFHFQLAVAYQSIDQSFFSINHAEKALDIYLKQENYVSRIALTQMIIAANKLDLNQYLAAEKLYKKAILIAVDSNQTFIELLGYYNLGLCYEVQEKLEQARDCFEKALDFNFPQENKKETYLRIKYMLARVLFKMGFLQEGVKWFEDAVQLANETNDKIYQVKLQIIHAVYFDQKELSIDEGLKVLKEQSLWHDVEDLSFIAARFYKKEGFYQLASKYYEEGLNAQQKIPSLYEEVGSA | failed
8 | MRFSFLPIVILMMPILEIAGFIIVGKAIGLWLTLALILFTSFLGLLILRLGGVGMVRNLQAAGRTGAQPADELVNGAMRVVAGILLIIPGFITDILGLLLLSPAIRRFFWKAFGPRVVVSGSFRQSGPQQGDYSGFRNGPGPAGNSKVVDLDEEEFHREGSKDSPWSNRPDDRDLPKP | failed
9 | SISNRDTNGMPFAKETLEQQQAVEKKNEILEMSYEIAKLLETGLDRETLQVAIELLEQGFDPYALASVIKELKRGNNQTTE | failed
10 | MNSEWIWRLRARLGYGVARQLLGWPWLVKQPRAWQWMQGQFSRMANLGHRDAQAFYGHLLLFRGQGFGAREEGLRLLRLAASAGDGKSAYQLGVQALKGDSRQAPDALAASRHWALAAEAGHPLAARKLAELYRDGGPGLAPDSERAEHYAQRASALGLLEHHHHHH | failed
11 | TVACPGRGRARPVCWKRSEMATCAVEVFGLLEDEENSRIVRVRVIAGIGLAKKDILGASDPYVRVTLYDPMNGVLTSVQTKTIKKSLNPKWNEEILFRVHPQQHRLLFEVFDENRLTRDDFLGQVDVPLYPLPTENPRLERPYTFKDFVLHPRSHKSRVKGYLRLKMTYLPKTSGSEDDNAEQAEELEPGWVVLDQPDAACH | failed
12 | MFDFLTHDMLAVVWFFLWCVIWGVYFIADSFSLGAGLLTPFIAADKVQRIQIQSSVGPFWGGNEVWLILAAGGTFAAFPLVFSKMFTFLYLPMMLLLIGLIARGISVEYLHKDDNPRIQQFLMWGWFAGSLLVSLVLGVAFANFFKGLEIASGGVYKGTLPGLFGPYALISGVLFVLMSVTSGALWINVKTEGAVAAKAGDLAKKSALLVLIFALVYLAYSFAGVEGFATNYSSMPVLYLLPVLAVGGAVLSVFFAKKGRAFPAFCSNLLAFLFIVEGGLASIYPYMLKSSISPEYGIDIFEAASSHMTLSVMLGGALVFVPIVIIYQLWAYTLFREKITETEQVEY | failed
13 | MPCCSHRRCREDPGTSESQEMEEWALLDISQRKLYKEVMLETFRNLTSVGKSWKDQNIEYEYQNPRRNFRSLIEKKVNEIKDDSHCGETFTQVPDDRLNFQEKKASPEIKSCDSFVCGEVGLGNSSFNMNIRGDIGHKAYEYQEYGPKP | failed
14 | MSDNYKFFRHDNCEYFPCHKVKDKETFNCLFCYCPLYFLENCGGNKSDFNGVKDCSNCLIPHSKNGYDYIINKIREVNKEKRAKNNLTLEHHHHHH | not failed
15 | MSLAEHKGDVMIVDDDAHVRIAVKTILSDAGFHIISADSGGQCIDLLKKGFSGVVLLDIMMPGMDGWDTIRAILDNSLEQGIAIVMLTAKNAPDAKMIGLQEYVVDYITKPFDNEDLIEKTTFFMGFVRNQTGNEGHHHHHH | not failed
16 | MPLPADPSPTLSAYAHPERLVTADWLSAHMGAPGLAIVESDEDVLLYDVGHIPGAVKIDWHTDLNDPRVRDYINGEQFAELMDRKGIARDDTVVIYGDKSNWWAAYALWVFTLFGHADVRLLNGGRDLWLAERRETTLDVPTKTCTGYPVVQRNDAPIRAFRDDVLAILGAQPLIDVRSPEEYTGKRTHMPDYPEEGALRAGHIPTAVHIPWGKAADESGRFRSREELERLYDFINPDDQTVVYCRIGERSSHTWFVLTHLLGKADVRNYDGSWTEWGNAVRVPIVAGEEPGVVPVV | not failed
17 | MASTDYHVDLTNCDREPIHIPGYIQPHGCLIACDNAMRMVLRHSENCGELLGLEGDLNGRTAEDVLGKKLVHDLRNALTVTGRTTRPAMLPAMETSDGRSFDISLHRYKSTTIIEFEPSGSDAQPLGTARKMVDRIREADSVESLISRTTRLVKATLGYDRVMIYRFQEDGAGKVVSEAKQPELESFLGQYFPASDIPQQARALYLKNTLRIISDASGTRIPVLPAVDVSGEPLDLSYAHLRSVSPIHCEYLRNMGVAASMSISVIVDGALWGLIACHHYSPRVLSMPVRIAAEMFGEFFSMHLQVLKQKRRLDTINHAHAALDRFLRLAAHHANIEELLVDSFQDFADLMPCDGVGLWVGNNWHGHGATPPHDAIPRLARFVASASEGRVWATHALSQAIPEAEIYAGTAAGMLAIPLSQVKSDYLLFFRKEIVQNLNWAGNPEKSYETGPMGDRLTPRKSFAIWKETVRLQAQPWSEADREIAEAARIALVEVAFHHSELMAGERERAEVRQRMLNEELNHRVKNVLAIIKSLVGNPSQEGKTLQEYVTALKGRIQALSFAHDQIIRGEGGGALRDLLEAELSPHRSPETTVKLEGPQITLDSRAFSVMALVLHELATNAAKYGALSQNGGQLHVRWDVNENRDCEISWRETLLTTLPAPSRAGFGTALISRSIPYDLGGRSTIRYLPNGLEAEILLPFRHVSSVSAAFETKTEAETLPQPRRYNREEPLKVLLVEDQMLIAMDVENMLEDNGIKAIETATSSAMAIEKLKTYLPDVAILDINLGSDTSIPVARELHRRGIPFLFATGYADGSMVPDEFGAVPVIRKPYDEDALMAGIGVLVGDTERV | failed
18 | MRSPIKLEFSEKYDKDHAREYFLKHQDGLARRLSHKRDEQLARRALALAGEPGLVLDLPCGAGRFWPLLAEKPNRVIIGADNSEAMIETACAAQPPEVVARVRPLQTSAFAIDLPDNAVDSIFCMRLFHHIGESAHRKTILSEFQRVSRDSVILSLWVDGNFKAWRRKKLEQRRSAKAEQDNYQNRFVLPAETVEEEFRAAGFRIQERLDFLPFYAMWRVYVLRKG | failed
19 | MSQTTVVNGVNVDQLMATIEQIKAKPEIAQFKFRATNQWMGGTHNQATIKDFYGACAEDDTRKPMVFDLDEPPVLLGENRGANPVEYLLVALSGCLTTSLVAHAAARGIALRGVKSRYEGDIDLRGFLGLSEEVPVGYREIRVFFSIDADLTDGQKEELIRMAQKYSPVYNTVAKPVPVAVLLDRG | not failed
20 | MRIHRLDIEAFGPFATPQHIDFDHLSAQGLFLLNGATGAGKTSILDAICFALYGSVPGARQEGKRLRSDHAAPGAEPRVVCEFSARGRRFEVTRSPAWDRPSARGRNGFTTQQAKTLLRERVAGSWEEKSSRNDEVGAELSDVLGMDREQFTRVVMLPQGDFAAFLRSKANDRLELLQKLFGTQRFEAVERQLVHQAAEAARAVQENASELKLLLDRVASEQDQLGLPAADTSAAGTEPGQEPEAWLAGVEAEVEAEWKRRQNEAAEAESLSSRLMEHFQEAQEKSQRHGRLGAAMQRRVLLELAAPRALENKEMLGKHRRAAVLSGQLEAVDSAARKLHTASARAAGLREKLDAAGLDAAKPTIALETVKASCAVLEARLPEEQRLEGITVRLAARRGELAEHLSAAEAAATVVDQLREEVSAVELEIQPLEPLADQLAEREREATAAAELVGIVARHATAASELDVITGKHLHARSASQDLRQKWLDVRELRLANAAGELAAALESGKPCAVCGSEEHPNPAQAVRTALSLAQEEEEARERFEASERALGLLAEQVSSAAQVLAGLVAQGGSADAAAAESTLADARAAALAARTAEASLEKLRVRHEALIKRIVLAQEEHDASVGAAAQASAAVHVLQEQCVALETDLAGLRGDFSSLRDRLEALEAERGLLQAAVDADRELERAEQARQDAAASLDKALSESGFASADDARREILSPADVVGLEKDLADFDAESSRLDELFGSEDLVLAAKEASIGEHPLGEAELAESKLHAANAADDARAKALSAGLAGKSAAAVARFRTEYQSLAQAGREPRNRAQMLAELADTVRGSGDNSYRMSLNAYVLAARLEQVATAASERLVAMSDGRYTLQHTDAKAARGAKSGLGLEVVDEWTGQRRDTSTLSGGESFMASLSLALGLADVVQQEAGGVDIETLFVDEGFGSLDDQALEQVMDALEGLRDGGRVVGLVSHVGEMKQRITNQLQVVKGRHGSSVRIAEAGPV | failed
21 | MMYFISDTHFYHENIINLNPEVRFKGFEIVILTNLLKVLKPEDTLYHLGDFTWHFNDKNEYLRIWKALPGRKILVMGNHDKDKESLKEYFDEIYDFYKIIEHKGKRILLSHYPAKDPITERYPDRQEMVREIYFKENCDLLIHGHVHWNREGIKCACKDYRIECINANVEWNDYKPISEREIDKLISYEKAKN | not failed
22 | MAGASHDIHPPKVEYFDLRDHTNTDPKGFVRHVDHYRVEPWGLYMARTSDHPQFHYLESWLLPDLGLRASIFHYHPYHQRDQDHYVDIGTFTRGDDVWKSEDHYLDLVVRTGRDTELLDVDELMEAHTTGLLDTATAEQAILTATTAIDGIAAHGHDLGRWLASIGMPIDWR | not failed
23 | GRDYVLSANLSLGMNKMKVDKLNGTDNVIWDQNNRWKSSYNDYCLKVGDQVGLIYGFVYDGLYSMDEFYFDPTNNLQAVPWGSTAAENGTSKDAPIMDADGVEHPKTIINQISGDSNSGIATLPGKVKFKDLNGDGYITEDDRTVIGNTNPKVQGGFGLSGQWKGFDFAMNFNFMLDFDVNNATAYQLSSSESNKNKFYNVLSTFADKGWRYTRDGDGECLYKCYYIDGSLDMYRELNEGRTLWNPTDVTKKITHSYFIEDGSFLRCQDLTVGYTLPGNLTSKWGISKARFYVSASNLFIITGYSGYDPEVDIQTGLTCGMDYNRYPRSRSFVLGTNITF | failed
